Results as given in patent US20250320269A1 (ALBERT EINSTEIN COLLEGE OF MEDICINE, published 2025).
Where a chain is given by its changes, count along the chain named.

T1: Human B7-H3 (human, UniProt Q5ZPR3 29-461, limits assumed)
T1 construct: also called human B7-H3 protein; CD276
T1 sequence (looked up): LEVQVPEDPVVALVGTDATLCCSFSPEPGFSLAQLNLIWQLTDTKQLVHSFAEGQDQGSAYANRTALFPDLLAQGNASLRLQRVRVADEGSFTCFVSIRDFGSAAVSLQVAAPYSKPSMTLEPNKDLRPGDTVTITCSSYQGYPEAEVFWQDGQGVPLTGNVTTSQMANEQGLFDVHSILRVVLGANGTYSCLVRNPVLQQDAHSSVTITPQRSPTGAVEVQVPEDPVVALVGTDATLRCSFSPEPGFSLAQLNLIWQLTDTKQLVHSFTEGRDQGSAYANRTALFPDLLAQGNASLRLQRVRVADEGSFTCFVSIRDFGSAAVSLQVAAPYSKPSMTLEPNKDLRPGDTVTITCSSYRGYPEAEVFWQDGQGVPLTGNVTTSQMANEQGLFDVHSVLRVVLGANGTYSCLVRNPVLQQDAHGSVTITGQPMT

T2: Mouse B7-H3 (mouse, UniProt Q8VE98 29-244, limits assumed)
T2 construct: also called mouse B7-H3 protein
T2 sequence (looked up): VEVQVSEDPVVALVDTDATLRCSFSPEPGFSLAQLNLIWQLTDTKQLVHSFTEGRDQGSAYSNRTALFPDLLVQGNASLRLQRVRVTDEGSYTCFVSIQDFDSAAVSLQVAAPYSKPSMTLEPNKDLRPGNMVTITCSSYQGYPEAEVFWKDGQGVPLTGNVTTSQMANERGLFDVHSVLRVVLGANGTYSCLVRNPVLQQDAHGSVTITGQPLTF

B1: 23B2 mAb (antibody, V domains shown)
VH: QVQLQQPGAELVKPGASVKLSCKASGYTFTSYWMHWVKQRPGQGLEWIGMIHPNSGSTNYNEKFKSKATLTVDKSSSTAYMQLSSLTSEDSAVYYCARESRQLDYWGQGTTLTVSS
VL: QIVLTQSPAIMSASPGEKVTMTCSASSSISYMHWYQQKPGTSPKRWIYDTSKLASGVPARFSGSGSGTSYSLTISSMEAEDAATYYCHQRSSYPLTFGAGTKLELK
notes: Mouse hybridoma mAb, IgG1 with kappa chain; also called 231B2
B2: 8B12 mAb (antibody, V domains shown)
VH: QVQLQQPGAELVKPGASVKMSCKASGYTFTSYWITWVKQRPGQGLEWIGDIYPGSGSTNYNEKFKSKATLTVDTSSSTAYMQLSSLTSEDSAVYYCARGGTRFSPFAYWGQGTLVTVSA
VL: DVLMTQTPLSLPVSLGDQASISCRSSQSIVHSNGNTYLEWYLQKPGQSPKLLIYKVSNRFSGVPDRFSGSGSGTDFTLKISRVEAEDLGVYYCFQGSHVPWTFGGGTKLEIKR
notes: Mouse hybridoma mAb, IgG3 with kappa chain; also called 8K12; 81812
B3: 1G5 mAb (antibody, V domains shown)
VH: QVQLQQPGAELVKPGASVKLSCKASGYTFTSYWMHWVKQRPGQGLEWIGMIHPNSGSTNYNEKFKSKATLTVDKSSSTAYMQLSSLTSEDSAVYYCARGGYFDYWGQGTTLTVSS
VL: DIVMTQSQKFMSTSVGDRVSVTCKASQNVGTNVAWYQQKPGQSPKALIYSASYRYSGVPDRFTGSGSGTDFTLTISNVQSEDLAEYFCQQYNSYPYTFGGGTKLEIKR
notes: Mouse hybridoma mAb, IgG3 with kappa chain
B4: 15F9 mAb (antibody, V domains shown)
VH: B3 VH with S31N, G99R, Y101D, F102G
VL: DIQMTRHPSSLSASMGERVSLTCRASQEISGYLSWLQQKPDGTIKRLIYAASTLDSGVPKRFSGSRSGSDYSLTISSLESEDFADYYCLQYASYPYTFGGGTKLEI
notes: as for B3
B5: 12B4 mAb (antibody, V domains shown)
VH: QVQLQQPGAELVKPGASVKLSCKASGYTFTSYWMHWVKQRPGQGLEWIGMIHPNSGSTNYNEKFKSKATLTVDKSSSTAYMQLSSLTSEDSAVYYCARYYYGSSYAMDYWGQGTSVTVS
VL: QIVLTQSPAIMSASPGEKVTITCSASSSVSYMHWFQQKPGTSPKLWIYSTSNLASGVPARFSGSGSGTSYSLTISRMEAEDAATYYCQQRSSYPYTFGGGTKLEIKR
notes: Mouse hybridoma mAb, IgG3 with kappa chain; also called 124; 1214
B6: 24D12 mAb (antibody, V domains shown)
VH: QVQLQQPGAELVKPGASVKLSCKASGYTFTSYWMHWVKQRPGQGLEWIGMIHPNSGSTNYNEKFKSKATLTVDKSSSTAYMQLSSLTSEDSAVYYCANYYGTNVWGTGTTVTVS
VL: DIVLTQSPASLAVSLGQRATISYRASKSVSTSGYSYMHWNQQKPGQPPRLLIYLVSNLESGVPARFSGSGSGTDFTLNIHPVEEEDAATYYCQHIREAYTFGRG

biological target: T1, Human B7-H3; experiment: surface plasmon resonance

| Kd | Binder |
| --- | --- |
| 11.1 nM | B1 |
| 0.32 nM | B2 |
| 4.86 nM | B3 |
| 4.51 nM | B4 |
| 5.62 nM | B5 |
| 4.51 nM | B6 |

biological target: T2, Mouse B7-H3; experiment: surface plasmon resonance

| Kd | Binder |
| --- | --- |
| 10.2 nM | B1 |
| 4.01 nM | B2 |
| 0.81 nM | B3 |
| 1.76 nM | B4 |
| 1.71 nM | B5 |
| 1.76 nM | B6 |
